These results are taken from publication PMC10498669.

This assay has as its target AAV8 VP3 of the VP3-only capsid (VLP-0) (adeno-associated virus serotype 8). As to the kind of experiment: native MS; high-resolution ensemble native MS of purified capsids; 75 mM ammonium acetate pH 7.5; Orbitrap Q Exactive UHMR, xenon collision gas, positive ion mode; spectra compared with simulations of stochastic assembly.

Consider “AAV8 VP3 of the VP3-only capsid (VLP-0) (natural protein)”, for which the stoichiometry N (commonly the number of molecules, sites or subunits per partner or assembly) was 60.
